Data taken from US20230406885A1, “CYCLIC PEPTIDES FOR TRAPPING INTERLEUKIN-1 BETA” (MERCK SHARP & DOHME LLC, priority 2022, published 2023).
*1 amine or outer side, *2 acyl side, *3 side chain or, on linkers, in order; H or OH if unused. [ ]: non-standard residue; d: D form. 3AzaPhe4AcPip = (S)-3-(6-(4-acetylpiperazin-1-yl)pyridin-3-yl)-2-aminopropanoic acid, CC(=O)N1CCN(c2ccc(C[C@H](N[*:1])C(=O)[*:2])cn2)CC1; Pro(trans-4-NH2) = O=C([C@@H]1C[C@@H](N[*:3])CN1[*:1])[*:2]; Bip(4'-COOH) = N[C@@H](Cc1ccc(-c2ccc(C(=O)O)cc2)cc1)C(=O)O; 1Nal(3S-Me) = C[C@@H](c1cccc2ccccc12)[C@H](N)C(=O)O; Phe(4-COOH) = N[C@@H](Cc1ccc(C(=O)O)cc1)C(=O)O; h3Pal(5-CN) = N#Cc1cncc(CC[C@H](N)C(=O)O)c1; 1Nal = N[C@@H](Cc1cccc2ccccc12)C(=O)O; Ala(4-THP) = N[C@@H](CC1CCOCC1)C(=O)O; hTyr = N[C@@H](CCc1ccc(O)cc1)C(=O)O; 4Pal = N[C@@H](Cc1ccncc1)C(=O)O; Orn = NCCC[C@H](N)C(=O)O; dNMeA = CN[C@H](C)C(=O)O; Dap = NC[C@H](N)C(=O)O; Aib = CC(C)(N)C(=O)O

B1: SEQ ID NO: 24 (peptide)
peptide: cyclo([Bip(4'-COOH)]W[Phe(4-COOH)]G[Pro(trans-4-NH2)][1Nal(3S-Me)]D[dNMeA]G[Bip(4'-COOH)][Ala(4-THP)][Dap][dA][hTyr])
SMILES: C[C@@H]1C(=O)NCC(=O)N[C@@H](Cc2ccc(-c3ccc(C(=O)O)cc3)cc2)C(=O)N[C@@H](CC2CCOCC2)C(=O)N[C@@H](CN)C(=O)N[C@H](C)C(=O)N[C@@H](CCc2ccc(O)cc2)C(=O)N[C@@H](Cc2ccc(-c3ccc(C(=O)O)cc3)cc2)C(=O)N[C@@H](Cc2c[nH]c3ccccc23)C(=O)N[C@@H](Cc2ccc(C(=O)O)cc2)C(=O)NCC(=O)N2C[C@H](N)C[C@H]2C(=O)N[C@@H]([C@@H](C)c2cccc3ccccc23)C(=O)N[C@@H](CC(=O)O)C(=O)N1C
B2: SEQ ID NO: 18 (peptide)
peptide: cyclo([Bip(4'-COOH)]W[Phe(4-COOH)]G[Pro(trans-4-NH2)][1Nal(3S-Me)]D[dNMeA]G[Bip(4'-COOH)][1Nal][Dap][Aib][h3Pal(5-CN)])
SMILES: C[C@@H]1C(=O)NCC(=O)N[C@@H](Cc2ccc(-c3ccc(C(=O)O)cc3)cc2)C(=O)N[C@@H](Cc2cccc3ccccc23)C(=O)N[C@@H](CN)C(=O)NC(C)(C)C(=O)N[C@@H](CCc2cncc(C#N)c2)C(=O)N[C@@H](Cc2ccc(-c3ccc(C(=O)O)cc3)cc2)C(=O)N[C@@H](Cc2c[nH]c3ccccc23)C(=O)N[C@@H](Cc2ccc(C(=O)O)cc2)C(=O)NCC(=O)N2C[C@H](N)C[C@H]2C(=O)N[C@@H]([C@@H](C)c2cccc3ccccc23)C(=O)N[C@@H](CC(=O)O)C(=O)N1C
B3: SEQ ID NO: 25 (peptide)
peptide: cyclo([Bip(4'-COOH)]W[Phe(4-COOH)]G[Pro(trans-4-NH2)][1Nal(3S-Me)]D[dNMeA]G[Bip(4'-COOH)]KL[dA][hTyr])
SMILES: CC(C)C[C@@H]1NC(=O)[C@H](CCCCN)NC(=O)[C@H](Cc2ccc(-c3ccc(C(=O)O)cc3)cc2)NC(=O)CNC(=O)[C@@H](C)N(C)C(=O)[C@H](CC(=O)O)NC(=O)[C@H]([C@@H](C)c2cccc3ccccc23)NC(=O)[C@@H]2C[C@@H](N)CN2C(=O)CNC(=O)[C@H](Cc2ccc(C(=O)O)cc2)NC(=O)[C@H](Cc2c[nH]c3ccccc23)NC(=O)[C@H](Cc2ccc(-c3ccc(C(=O)O)cc3)cc2)NC(=O)[C@H](CCc2ccc(O)cc2)NC(=O)[C@@H](C)NC1=O
B4: SEQ ID NO: 2 (peptide)
peptide: cyclo([3AzaPhe4AcPip]W[Phe(4-COOH)]G[Pro(trans-4-NH2)][1Nal(3S-Me)]D[dNMeA]G[Bip(4'-COOH)]KL[dA][h3Pal(5-CN)])
SMILES: CC(=O)N1CCN(c2ccc(C[C@@H]3NC(=O)[C@H](CCc4cncc(C#N)c4)NC(=O)[C@@H](C)NC(=O)[C@H](CC(C)C)NC(=O)[C@H](CCCCN)NC(=O)[C@H](Cc4ccc(-c5ccc(C(=O)O)cc5)cc4)NC(=O)CNC(=O)[C@@H](C)N(C)C(=O)[C@H](CC(=O)O)NC(=O)[C@H]([C@@H](C)c4cccc5ccccc45)NC(=O)[C@@H]4C[C@@H](N)CN4C(=O)CNC(=O)[C@H](Cc4ccc(C(=O)O)cc4)NC(=O)[C@H](Cc4c[nH]c5ccccc45)NC3=O)cn2)CC1
B5: SEQ ID NO: 19 (peptide)
peptide: cyclo([Bip(4'-COOH)]W[Phe(4-COOH)]G[Pro(trans-4-NH2)][1Nal(3S-Me)]D[dNMeA]G[Bip(4'-COOH)][1Nal]L[Aib]G)
SMILES: CC(C)C[C@@H]1NC(=O)[C@H](Cc2cccc3ccccc23)NC(=O)[C@H](Cc2ccc(-c3ccc(C(=O)O)cc3)cc2)NC(=O)CNC(=O)[C@@H](C)N(C)C(=O)[C@H](CC(=O)O)NC(=O)[C@H]([C@@H](C)c2cccc3ccccc23)NC(=O)[C@@H]2C[C@@H](N)CN2C(=O)CNC(=O)[C@H](Cc2ccc(C(=O)O)cc2)NC(=O)[C@H](Cc2c[nH]c3ccccc23)NC(=O)[C@H](Cc2ccc(-c3ccc(C(=O)O)cc3)cc2)NC(=O)CNC(=O)C(C)(C)NC1=O
B6: SEQ ID NO: 20 (peptide)
peptide: cyclo([Bip(4'-COOH)]W[Phe(4-COOH)]G[Pro(trans-4-NH2)][1Nal(3S-Me)]D[dNMeA]G[Bip(4'-COOH)][1Nal][Orn][Aib]G)
SMILES: C[C@@H]1C(=O)NCC(=O)N[C@@H](Cc2ccc(-c3ccc(C(=O)O)cc3)cc2)C(=O)N[C@@H](Cc2cccc3ccccc23)C(=O)N[C@@H](CCCN)C(=O)NC(C)(C)C(=O)NCC(=O)N[C@@H](Cc2ccc(-c3ccc(C(=O)O)cc3)cc2)C(=O)N[C@@H](Cc2c[nH]c3ccccc23)C(=O)N[C@@H](Cc2ccc(C(=O)O)cc2)C(=O)NCC(=O)N2C[C@H](N)C[C@H]2C(=O)N[C@@H]([C@@H](C)c2cccc3ccccc23)C(=O)N[C@@H](CC(=O)O)C(=O)N1C
B7: SEQ ID NO: 22 (peptide)
peptide: cyclo([Bip(4'-COOH)]W[Phe(4-COOH)]G[Pro(trans-4-NH2)][1Nal(3S-Me)]D[dNMeA]G[Bip(4'-COOH)][4Pal][Dap][dA][hTyr])
SMILES: C[C@@H]1C(=O)NCC(=O)N[C@@H](Cc2ccc(-c3ccc(C(=O)O)cc3)cc2)C(=O)N[C@@H](Cc2ccncc2)C(=O)N[C@@H](CN)C(=O)N[C@H](C)C(=O)N[C@@H](CCc2ccc(O)cc2)C(=O)N[C@@H](Cc2ccc(-c3ccc(C(=O)O)cc3)cc2)C(=O)N[C@@H](Cc2c[nH]c3ccccc23)C(=O)N[C@@H](Cc2ccc(C(=O)O)cc2)C(=O)NCC(=O)N2C[C@H](N)C[C@H]2C(=O)N[C@@H]([C@@H](C)c2cccc3ccccc23)C(=O)N[C@@H](CC(=O)O)C(=O)N1C
B8: SEQ ID NO: 23 (peptide)
peptide: cyclo([Bip(4'-COOH)]W[Phe(4-COOH)]G[Pro(trans-4-NH2)][1Nal(3S-Me)]D[dNMeA]G[Bip(4'-COOH)][Ala(4-THP)][Dap][dA][h3Pal(5-CN)])
SMILES: C[C@@H]1C(=O)NCC(=O)N[C@@H](Cc2ccc(-c3ccc(C(=O)O)cc3)cc2)C(=O)N[C@@H](CC2CCOCC2)C(=O)N[C@@H](CN)C(=O)N[C@H](C)C(=O)N[C@@H](CCc2cncc(C#N)c2)C(=O)N[C@@H](Cc2ccc(-c3ccc(C(=O)O)cc3)cc2)C(=O)N[C@@H](Cc2c[nH]c3ccccc23)C(=O)N[C@@H](Cc2ccc(C(=O)O)cc2)C(=O)NCC(=O)N2C[C@H](N)C[C@H]2C(=O)N[C@@H]([C@@H](C)c2cccc3ccccc23)C(=O)N[C@@H](CC(=O)O)C(=O)N1C
B9: SEQ ID NO: 21 (peptide)
peptide: cyclo([Bip(4'-COOH)]W[Phe(4-COOH)]G[Pro(trans-4-NH2)][1Nal(3S-Me)]D[dNMeA]G[Bip(4'-COOH)][4Pal][Dap][dA][h3Pal(5-CN)])
SMILES: C[C@@H]1C(=O)NCC(=O)N[C@@H](Cc2ccc(-c3ccc(C(=O)O)cc3)cc2)C(=O)N[C@@H](Cc2ccncc2)C(=O)N[C@@H](CN)C(=O)N[C@H](C)C(=O)N[C@@H](CCc2cncc(C#N)c2)C(=O)N[C@@H](Cc2ccc(-c3ccc(C(=O)O)cc3)cc2)C(=O)N[C@@H](Cc2c[nH]c3ccccc23)C(=O)N[C@@H](Cc2ccc(C(=O)O)cc2)C(=O)NCC(=O)N2C[C@H](N)C[C@H]2C(=O)N[C@@H]([C@@H](C)c2cccc3ccccc23)C(=O)N[C@@H](CC(=O)O)C(=O)N1C

Biological target: Recombinant human IL-1β (BioLegend 579404) (human, UniProt P01584 117-269)
Assay: cell-based or functional assay

In order of rising “MRC5 IC50” value:
1. B8  0.0112 nM
2. B4  0.0217 nM
3. B9  0.0234 nM
4. B1  0.0291 nM
5. B7  0.0325 nM
6. B3  0.0542 nM
7. B2  0.0885 nM
8. B5  0.118 nM
9. B6  0.44 nM
